In patent US20210308031:

Legend:
[1] = system: Unhydroxylated collagen purified from strain PP434 (vector MMV411)
[2] = system: (Pro-Pro-Gly)10 peptide model substrate

Q: Which “% Hydroxyproline (in vitro hydroxylation, 5 uM enzyme, 2 uM collagen, 32 C, 1 hour); enzyme from strain PP547” value [1] does the source give for “AB fusion protein with the His tag (P4HA1 at the N-terminus, GSGSGS linker, P4HB at the C-terminus, six histidines), encoded by plasmid MMV502” here?
A: The value was 34.8%.

Q: What about the “% Hydroxyproline (in vitro hydroxylation, 5 uM enzyme, 2 uM collagen, 32 C, 1 hour); enzyme from strain PP635” value [1] of the same substance?
A: The value was 26.6%.

Q: What about the “alpha-ketoglutaric acid consumption over time” value [2] of the same substance?
A: Its value is “there was less a ketoglutaric acid in the sample with the AB fusion protein than the sample with native P4HA and P4HB proteins”.
